From FireProtDB (doi:10.1110/ps.5101)

B1: Cytochrome c-551, P00099 (parent)
chain: MKPYALLSLLATGTLLAQGAWAEDPEVLFKNKGCVACHAIDTKMVGPAYKDVAAKFAGQAGAEAELAQRIKNGSQGVWGPIPMPPNAVSDDEAQTLAKWVLSQK

Variants of: B1
Settings: Pseudomonas aeruginosa (strain ATCC 15692 / DSM 22644 / CIP 104116 / JCM 14847 / LMG 12228 / 1C / PRS 101 / PAO1); pH 7; 10 °C; GdnHCl; Fluorescence; sodium phosphate 50 mM; reversible: yes; structure 451C; whole UniProt chain shown

Variant	ddG of mutation (higher = less stable) [kcal/mol]	denaturant m value [kcal/mol/M]	denaturant midpoint (higher = more stable) [M]	unfolding free energy [kcal/mol]
E92Q	-0.2	3.4	1.8	6.3
E92V	0.3	3.3	1.8	5.8
